EP4700044A1, “PROTEIN ANALOGUE AND USE THEREOF” (Shanghai Duomirui Biotechnology., Ltd., priority 2023, dated 2024)
Numbering of substitutions follows the chain as printed.

B1: Compound 5.4: FGF21K122C mutant (SEQ NO: 8) modified by the albumin-binding agent of Example 2.1 (conjugate)
chain: HPIPDSSPLLQFGGQVRQRYLYTDDAQQTEAHLEIREDGTVGGAADQSPESLLQLKALKPGVIQILGVKTSRFLCQRPDGALYGSLHFDPEACSFRERLLEDGYNVYQSEAHGLPLHLPGNCSPHRDPAPRGPARFLPLPGLPPAPPEPPGILAPQPPDVGSSDPLSMVGGSQGRSPSYES
modifications: albumin-binding agent of Example 2.1
B2: Compound 5.11: FGF21K122C mutant (SEQ NO: 8) modified by the albumin-binding agent of Example 2.3 (conjugate)
chain: B1 chain
modifications: albumin-binding agent of Example 2.3
B3: Compound 5.2: FGF21D38C mutant (SEQ NO: 6) modified by the albumin-binding agent of Example 2.1 (conjugate)
chain: B1 chain with D38C, C122K
modifications: albumin-binding agent of Example 2.1
B4: Compound 5.1: FGF21E30C mutant (SEQ NO: 5) modified by the albumin-binding agent of Example 2.1 (conjugate)
chain: B1 chain with E30C, C122K
modifications: albumin-binding agent of Example 2.1
B5: Compound 5.3: FGF21D46C mutant (SEQ NO: 7) modified by the albumin-binding agent of Example 2.1 (conjugate)
chain: B1 chain with D46C, C122K
modifications: albumin-binding agent of Example 2.1
B6: Compound 5.6: FGF21D38C mutant (SEQ NO: 6) modified by the albumin-binding agent of Example 2.2 (conjugate)
chain: B1 chain with D38C, C122K
modifications: albumin-binding agent conjugated
B7: Compound 5.12: FGF21H125C mutant (SEQ NO: 9) modified by the albumin-binding agent of Example 2.3 (conjugate)
chain: B1 chain with C122K, H125C
modifications: albumin-binding agent of Example 2.3
B8: Compound 5.14: FGF21K122C mutant (SEQ NO: 8) modified by the albumin-binding agent of Example 2.4 (conjugate)
chain: B1 chain
modifications: albumin-binding agent of Example 2.4
B9: Compound 5.9: FGF21H125C mutant (SEQ NO: 9) modified by the albumin-binding agent of Example 2.2 (conjugate)
chain: B1 chain with C122K, H125C
modifications: albumin-binding agent conjugated
B10: Compound 5.5: FGF21H125C mutant (SEQ NO: 9) modified by the albumin-binding agent of Example 2.1 (conjugate)
chain: B1 chain with C122K, H125C
modifications: albumin-binding agent of Example 2.1
B11: Compound 5.13: FGF21D46C mutant (SEQ NO: 7) modified by the albumin-binding agent of Example 2.4 (conjugate)
chain: B1 chain with D46C, C122K
modifications: albumin-binding agent of Example 2.4
B12: Compound 5.8: FGF21K122C mutant (SEQ NO: 8) modified by the albumin-binding agent of Example 2.2 (conjugate)
chain: B1 chain
modifications: albumin-binding agent conjugated
B13: Compound 5.10: FGF21D46C mutant (SEQ NO: 7) modified by the albumin-binding agent of Example 2.3 (conjugate)
chain: B1 chain with D46C, C122K
modifications: albumin-binding agent of Example 2.3
B14: Compound 10.4: PAS-FGF21 dimer: PAS100FGF21 (SEQ ID NO: 16) modified by the side chain of Example 8.3 (conjugate)
chain: SPCASPAAPAPASPAAPAPSAPAAASAAAPAAASAAASAPSAASAAASPAAPSAPPAAASPAAPSAPPAAASPAAPAPASPAASAPSAPAAASPAAPAPASHPIPDSSPLLQFGGQVRQRYLYTDDAQQTEAHLEIREDGTVGGAADQSPESLLQLKALKPGVIQILGVKTSRFLCQRPDGALYGSLHFDPEACSFRERLLEDGYNVYQSEAHGLPLHLPGNKSPHRDPAPRGPARFLPLPGLPPAPPEPPGILAPQPPDVGSSDPLSMVGGSQGRSPSYES
modifications: dimer; side chain of Example 8.3
B15: Compound 10.1: PAS-FGF21 dimer: PAS15FGF21 (SEQ ID NO: 13) modified by the side chain of Example 8.3 (conjugate)
chain: SPCASPAAPAPASPAAHPIPDSSPLLQFGGQVRQRYLYTDDAQQTEAHLEIREDGTVGGAADQSPESLLQLKALKPGVIQILGVKTSRFLCQRPDGALYGSLHFDPEACSFRERLLEDGYNVYQSEAHGLPLHLPGNKSPHRDPAPRGPARFLPLPGLPPAPPEPPGILAPQPPDVGSSDPLSMVGGSQGRSPSYES
modifications: dimer; side chain of Example 8.3
B16: Compound 10.3: PAS-FGF21 dimer: PAS50FGF21 (SEQ ID NO: 15) modified by the side chain of Example 8.3 (conjugate)
chain: SPCASPAAPAPASPAAPAPSAPAAASAAAPAAASAAASAPSAASAAASPAAHPIPDSSPLLQFGGQVRQRYLYTDDAQQTEAHLEIREDGTVGGAADQSPESLLQLKALKPGVIQILGVKTSRFLCQRPDGALYGSLHFDPEACSFRERLLEDGYNVYQSEAHGLPLHLPGNKSPHRDPAPRGPARFLPLPGLPPAPPEPPGILAPQPPDVGSSDPLSMVGGSQGRSPSYES
modifications: dimer; side chain of Example 8.3
B17: Compound 10.5: PAS-FGF21 dimer: PAS200FGF21 (SEQ ID NO: 17) modified by the side chain of Example 8.3 (conjugate)
chain: SPCASPAAPAPASPAAPAPSAPAAASAAAPAAASAAASAPSAASAAASPAAPSAPPAAASPAAPSAPPAAASPAAPAPASPAASAPSAPAAASPAAPAPASPAAPAPSAPAAASAAAPAAASAAASAPSASAAASAAAPAAASAAASAPSAASSAASPAAPSAPPAAASPAAPSAPPAAASPAAPAPASPAAPAPSAPAAAHPIPDSSPLLQFGGQVRQRYLYTDDAQQTEAHLEIREDGTVGGAADQSPESLLQLKALKPGVIQILGVKTSRFLCQRPDGALYGSLHFDPEACSFRERLLEDGYNVYQSEAHGLPLHLPGNKSPHRDPAPRGPARFLPLPGLPPAPPEPPGILAPQPPDVGSSDPLSMVGGSQGRSPSYES
modifications: dimer; side chain of Example 8.3
B18: Compound 10.2: PAS-FGF21 dimer: PAS30FGF21 (SEQ ID NO: 14) modified by the side chain of Example 8.3 (conjugate)
chain: SPCASPAAPAPASPAAPAPSAPAAASAAAPAHPIPDSSPLLQFGGQVRQRYLYTDDAQQTEAHLEIREDGTVGGAADQSPESLLQLKALKPGVIQILGVKTSRFLCQRPDGALYGSLHFDPEACSFRERLLEDGYNVYQSEAHGLPLHLPGNKSPHRDPAPRGPARFLPLPGLPPAPPEPPGILAPQPPDVGSSDPLSMVGGSQGRSPSYES
modifications: dimer; side chain of Example 8.3
B19: Compound 12.5: Fatty acid-modified PAS-FGF21 dimer: PAS200FGF21 (SEQ ID NO: 17) modified by the side chain of Example 8.5 (conjugate)
chain: B17 chain
modifications: dimer; fatty acid side chain of Example 8.5

target: T1, FGFR1c and the cofactor β-Klotho (Homo sapiens, UniProt P11362+Q86Z14); assay: dual-luciferase reporter gene assay in iLite FGF21 assay ready cells; type: cell-based; settings: Example 6, four-parameter fitting
T1 construct: host or cells: iLite FGF21 assay ready cells (genetically engineered reporter gene cell line)
From the text: iLite FGF21 assay ready cells (purchased from SAVR) is a genetically engineered reporter gene cell line that responds to signals downstream to FGF21 agonism through the expression of firefly luciferase. The receptor FGFR1c and the cofactor β-Klotho were co-overexpressed on the surface of iLite FGF21 assay ready cells and have undergone genetic optimization to enhance sensitivity, such that FGF21 will cause an increase in luciferase expression in a dose-response manner. The luciferase activity detection kit was purchased from Promega (catalog number #E2980).
iLite FGF21 assay ready cells were cultured adherently in basal medium (DMEM Gluta Max, purchased from Gibco) containing 10% fetal bovine serum (FBS, purchased from Gibco) and 1% penicillin/streptomycin (purchased from Gibco). For the activity determination experiment, […] cells per well and test samples such as FGF21 mutant proteins and FGF21 conjugate molecules modified with albumin-binding agent were added to all-white 96-well culture plates (purchased from Corning), and the chemiluminescence values were detected in a microplate reader according to the instructions of the luciferase activity detection kit. Finally, the half-maximal effective concentration (EC50) values of the tested samples were obtained by means of four-parameter fitting.

T1 sequence (P11362 22-822): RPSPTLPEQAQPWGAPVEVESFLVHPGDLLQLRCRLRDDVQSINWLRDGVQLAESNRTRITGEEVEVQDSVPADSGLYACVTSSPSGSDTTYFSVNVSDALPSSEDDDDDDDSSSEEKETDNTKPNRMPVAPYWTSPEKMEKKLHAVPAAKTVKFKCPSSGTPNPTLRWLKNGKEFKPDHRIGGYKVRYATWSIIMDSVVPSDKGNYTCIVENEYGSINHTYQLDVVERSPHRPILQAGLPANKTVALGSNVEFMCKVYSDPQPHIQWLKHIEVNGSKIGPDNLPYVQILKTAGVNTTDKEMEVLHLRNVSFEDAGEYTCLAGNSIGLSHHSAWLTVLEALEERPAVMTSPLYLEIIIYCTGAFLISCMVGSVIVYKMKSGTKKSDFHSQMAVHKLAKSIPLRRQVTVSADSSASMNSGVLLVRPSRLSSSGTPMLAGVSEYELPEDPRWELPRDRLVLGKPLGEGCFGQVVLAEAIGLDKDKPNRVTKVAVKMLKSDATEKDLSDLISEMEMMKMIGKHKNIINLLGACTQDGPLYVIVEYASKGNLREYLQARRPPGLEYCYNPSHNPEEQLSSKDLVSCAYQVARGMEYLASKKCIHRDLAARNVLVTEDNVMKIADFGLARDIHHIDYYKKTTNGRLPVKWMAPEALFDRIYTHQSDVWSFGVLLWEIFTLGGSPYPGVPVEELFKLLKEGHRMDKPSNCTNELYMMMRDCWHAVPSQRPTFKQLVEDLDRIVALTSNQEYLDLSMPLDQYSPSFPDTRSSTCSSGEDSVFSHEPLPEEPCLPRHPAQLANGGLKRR
T1 sequence (Q86Z14 whole entry): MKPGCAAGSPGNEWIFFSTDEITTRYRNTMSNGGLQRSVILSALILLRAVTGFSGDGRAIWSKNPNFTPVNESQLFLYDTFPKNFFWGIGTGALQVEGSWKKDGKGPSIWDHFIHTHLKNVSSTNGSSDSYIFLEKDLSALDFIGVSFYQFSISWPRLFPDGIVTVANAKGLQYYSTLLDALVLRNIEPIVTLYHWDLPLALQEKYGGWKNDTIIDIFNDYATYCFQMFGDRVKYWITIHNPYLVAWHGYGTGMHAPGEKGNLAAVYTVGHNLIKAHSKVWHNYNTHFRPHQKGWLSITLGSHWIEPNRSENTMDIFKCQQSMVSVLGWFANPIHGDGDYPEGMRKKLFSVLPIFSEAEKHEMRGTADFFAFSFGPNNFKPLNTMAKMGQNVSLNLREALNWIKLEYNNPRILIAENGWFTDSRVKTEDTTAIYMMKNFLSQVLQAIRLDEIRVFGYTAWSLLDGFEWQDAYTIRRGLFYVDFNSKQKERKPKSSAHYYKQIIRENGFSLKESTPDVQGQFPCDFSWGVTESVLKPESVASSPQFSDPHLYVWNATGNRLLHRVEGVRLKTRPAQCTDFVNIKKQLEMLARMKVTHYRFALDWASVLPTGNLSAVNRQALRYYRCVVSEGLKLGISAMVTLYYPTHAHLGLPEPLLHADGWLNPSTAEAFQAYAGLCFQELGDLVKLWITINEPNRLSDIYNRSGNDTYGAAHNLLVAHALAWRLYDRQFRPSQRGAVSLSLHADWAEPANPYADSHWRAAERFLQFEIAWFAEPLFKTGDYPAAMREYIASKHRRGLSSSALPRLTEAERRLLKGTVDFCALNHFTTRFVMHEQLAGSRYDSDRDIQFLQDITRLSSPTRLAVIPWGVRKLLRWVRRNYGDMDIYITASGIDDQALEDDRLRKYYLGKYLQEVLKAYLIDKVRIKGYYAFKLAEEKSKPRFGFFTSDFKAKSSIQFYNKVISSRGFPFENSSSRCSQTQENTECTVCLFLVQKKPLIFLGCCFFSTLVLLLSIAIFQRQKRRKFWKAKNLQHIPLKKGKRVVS

Molecule | EC50 [nM]
B1 | 0.99
B2 | 2.09
B3 | 1.99
B4 | 4.61
B5 | 0.24
B6 | 2.06
B7 | 1.4
B8 | 1.02
B9 | 1.18
B10 | 0.52
B11 | 1.84
B12 | 1.13
B13 | 2.69

same assay, conditions: Example 11, four-parameter fitting

Molecule | EC50 [nM]
B14 | 0.13
B15 | 0.07
B16 | 0.02
B17 | 0.15
B18 | 0.04

same assay, conditions: Example 13, four-parameter fitting

Molecule | EC50 [nM]
B19 | 0.09
